Positions count from the first letter of the chain named. Numbers in names are those of the source.
B1: AtHPPDm-F415W-02: nucleotide sequence encoding Arabidopsis thaliana HPPD with F415W; vector DBN11793 (nucleic acid)
DNA: ATGGGACATCAGAATGCTGCTGTATCAGAAAATCAAAATCATGATGATGGAGCCGCCTCCTCACCAGGGTTTAAGTTGGTTGGGTTCTCCAAGTTTGTACGGAAGAACCCAAAATCCGACAAGTTCAAGGTTAAACGCTTCCACCACATTGAATTCTGGTGCGGCGACGCCACCAATGTTGCTCGGCGTTTTTCATGGGGTTTAGGCATGAGATTCTCAGCAAAGAGTGACCTGAGCACCGGCAACATGGTTCATGCTAGCTATCTCTTAACATCTGGAGATTTGAGGTTTCTTTTCACGGCGCCGTACTCACCATCACTCTCCGCCGGCGAGATCAAACCCACCACGACTGCAAGCATACCTTCATTTGATCATGGTAGTTGCAGATCCTTCTTCTCGTCGCACGGCCTAGGGGTGCGCGCGGTCGCCATCGAAGTTGAAGATGCAGAATCAGCGTTTAGTATCAGCGTGGCAAATGGAGCTATTCCTTCCTCCCCTCCAATTGTCCTCAATGAGGCTGTAACTATTGCCGAGGTGAAGTTGTATGGAGATGTTGTGCTGAGATATGTTTCTTACAAGGCAGAGGACACTGAGAAATCTGAATTTTTGCCTGGTTTTGAAAGGGTCGAGGATGCTTCAAGTTTTCCTCTTGATTACGGCATACGACGGTTGGATCACGCGGTTGGAAATGTACCAGAACTTGGGCCGGCGCTCACTTATGTGGCTGGTTTCACTGGATTCCATCAATTTGCTGAGTTCACAGCTGATGATGTTGGGACTGCTGAAAGTGGGTTGAACTCTGCAGTCCTCGCCTCTAATGATGAAATGGTGCTCCTCCCGATCAACGAGCCTGTGCATGGCACCAAAAGGAAATCACAAATACAGACATATCTTGAGCACAATGAAGGTGCAGGGCTTCAACATCTTGCACTGATGTCTGAAGACATTTTCCGTACGCTGAGAGAGATGAGGAAGAGAAGTAGTATTGGTGGATTTGACTTCATGCCTTCTCCCCCACCAACTTACTACCAGAACTTGAAGAAGAGGGTTGGTGATGTGCTATCTGATGACCAGATCAAGGAGTGTGAAGAATTGGGCATTCTTGTTGATCGGGACGACCAAGGAACATTACTGCAGATATTTACAAAACCACTTGGTGACCGCCCCACTATTTTTATTGAGATCATACAAAGAGTCGGCTGCATGATGAAGGATGAGGAAGGAAAAGCATATCAATCTGGTGGTTGTGGCGGCTTTGGGAAAGGAAACTGGTCTGAGCTGTTCAAATCCATCGAGGAGTATGAGAAGACCTTGGAGGCCAAGCAGCTCGTGGGTTGA
modifications: AtHPPDm-F415W-02 Nucleotide Sequence
notes: vector DBN11793
B2: AtHPPDm-F372A-F415W-02: nucleotide sequence encoding Arabidopsis thaliana HPPD with F372A+F415W; vector DBN11794 (nucleic acid)
DNA: B1 DNA with T1141G, T1142C, T1143C
modifications: AtHPPDm-F372A-F415W-02 Nucleotide Sequence
notes: vector DBN11794

Experiments:
Assay type in all cases: in vivo
[1] = test system: Arabidopsis thaliana T1 plants; experiment: Topramezone tolerance of transgenic Arabidopsis thaliana T1 plants (spray, bleached leaf area grade, damage score); conditions: Table 13; for Classification and statistics of the grade of pesticide damage Grade 0: number of plants at grade 0; for Classification and statistics of the grade of pesticide damage Grade 1: number of plants at grade 1; for Classification and statistics of the grade of pesticide damage Grade 2: number of plants at grade 2; for Classification and statistics of the grade of pesticide damage Grade 3: number of plants at grade 3; for Scores: pesticide damage score
In short: (§1)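 Damage graded 0–3 from the proportion of bleached leaf area 7 days after spraying. Plants were glufosinate-selected T1 lines, 18 days after sowing, plus vector and wild-type controls. Rates: mesotrione 52.5–420, isoxaflutole 35–280, topramezone 25–200 g ai/ha, with water (0×).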

[2] = test system: Arabidopsis thaliana T1 plants; experiment: Isoxaflutole tolerance of transgenic Arabidopsis thaliana T1 plants (spray, bleached leaf area grade, damage score); conditions: for Classification and statistics of the grade of pesticide damage Grade 0 / Classification and statistics of the grade of pesticide damage Grade 1 / Classification and statistics of the grade of pesticide damage Grade 2 / Classification and statistics of the grade of pesticide damage Grade 3: number of plants in grade;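 on Scores: Weighted damage index from 0 to 100 where higher means more damage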
In short: as §1

[3] = test system: Arabidopsis thaliana T1 plants; experiment: Mesotrione tolerance of transgenic Arabidopsis thaliana T1 plants (spray, bleached leaf area grade, damage score); design: Scores: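 damage score 0-100 computed as Σ(N×S)/(T×M)×100 over grades 0-3 with higher meaning more damage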; conditions: for Classification and statistics of the grade of pesticide damage Grade 0 / Classification and statistics of the grade of pesticide damage Grade 1 / Classification and statistics of the grade of pesticide damage Grade 2 / Classification and statistics of the grade of pesticide damage Grade 3: number of plants in grade
In short: as §1

Molecule	Resistance evaluation ([1]; topramezone 25 g ai/ha (1×))	Classification and statistics of the grade of pesticide damage Grade 0 ([1]; topramezone 25 g ai/ha (1×))	Classification and statistics of the grade of pesticide damage Grade 1 ([1]; topramezone 25 g ai/ha (1×))	Classification and statistics of the grade of pesticide damage Grade 2 ([1]; topramezone 25 g ai/ha (1×))	Classification and statistics of the grade of pesticide damage Grade 3 ([1]; topramezone 25 g ai/ha (1×))	Scores ([1]; topramezone 25 g ai/ha (1×))	Resistance evaluation ([1]; topramezone 100 g ai/ha (4×))	Classification and statistics of the grade of pesticide damage Grade 0 ([1]; topramezone 100 g ai/ha (4×))	Classification and statistics of the grade of pesticide damage Grade 1 ([1]; topramezone 100 g ai/ha (4×))	Classification and statistics of the grade of pesticide damage Grade 2 ([1]; topramezone 100 g ai/ha (4×))	Classification and statistics of the grade of pesticide damage Grade 3 ([1]; topramezone 100 g ai/ha (4×))	Scores ([1]; topramezone 100 g ai/ha (4×))	Resistance evaluation ([2]; isoxaflutole 35 g ai/ha)	Scores ([2]; isoxaflutole 35 g ai/ha)	Classification and statistics of the grade of pesticide damage Grade 0 ([2]; isoxaflutole 35 g ai/ha)	Classification and statistics of the grade of pesticide damage Grade 1 ([2]; isoxaflutole 35 g ai/ha)	Classification and statistics of the grade of pesticide damage Grade 2 ([2]; isoxaflutole 35 g ai/ha)	Classification and statistics of the grade of pesticide damage Grade 3 ([2]; isoxaflutole 35 g ai/ha)	Resistance evaluation ([2]; isoxaflutole 70 g ai/ha)	Scores ([2]; isoxaflutole 70 g ai/ha)	also measured
B1	Non-resistant	0	0	0	16	100	Non-resistant	0	0	0	16	100	Non-resistant	100	0	0	0	16	Non-resistant	100	Classification and statistics of the grade of pesticide damage Grade 0 ([2]; isoxaflutole 70 g ai/ha): 0; Classification and statistics of the grade of pesticide damage Grade 1 ([2]; isoxaflutole 70 g ai/ha): 0; Classification and statistics of the grade of pesticide damage Grade 2 ([2]; isoxaflutole 70 g ai/ha): 0; Classification and statistics of the grade of pesticide damage Grade 3 ([2]; isoxaflutole 70 g ai/ha): 16; Resistance evaluation ([3]; mesotrione 52.5 g ai/ha): Non-resistant; Scores ([3]; mesotrione 52.5 g ai/ha): 100; Classification and statistics of the grade of pesticide damage Grade 0 ([3]; mesotrione 52.5 g ai/ha): 0; Classification and statistics of the grade of pesticide damage Grade 1 ([3]; mesotrione 52.5 g ai/ha): 0; Classification and statistics of the grade of pesticide damage Grade 2 ([3]; mesotrione 52.5 g ai/ha): 0; Classification and statistics of the grade of pesticide damage Grade 3 ([3]; mesotrione 52.5 g ai/ha): 16; Resistance evaluation ([3]; mesotrione 105 g ai/ha): Non-resistant; Scores ([3]; mesotrione 105 g ai/ha): 100; Classification and statistics of the grade of pesticide damage Grade 0 ([3]; mesotrione 105 g ai/ha): 0; Classification and statistics of the grade of pesticide damage Grade 1 ([3]; mesotrione 105 g ai/ha): 0; Classification and statistics of the grade of pesticide damage Grade 2 ([3]; mesotrione 105 g ai/ha): 0; Classification and statistics of the grade of pesticide damage Grade 3 ([3]; mesotrione 105 g ai/ha): 16
B2	Poorly	4	4	7	1	44	Non-resistant	0	0	3	13	94	Poorly	54	0	9	4	3	Non-resistant	100	Classification and statistics of the grade of pesticide damage Grade 0 ([2]; isoxaflutole 70 g ai/ha): 0; Classification and statistics of the grade of pesticide damage Grade 1 ([2]; isoxaflutole 70 g ai/ha): 0; Classification and statistics of the grade of pesticide damage Grade 2 ([2]; isoxaflutole 70 g ai/ha): 0; Classification and statistics of the grade of pesticide damage Grade 3 ([2]; isoxaflutole 70 g ai/ha): 16; Resistance evaluation ([3]; mesotrione 52.5 g ai/ha): Poorly resistant; Scores ([3]; mesotrione 52.5 g ai/ha): 65; Classification and statistics of the grade of pesticide damage Grade 0 ([3]; mesotrione 52.5 g ai/ha): 0; Classification and statistics of the grade of pesticide damage Grade 1 ([3]; mesotrione 52.5 g ai/ha): 4; Classification and statistics of the grade of pesticide damage Grade 2 ([3]; mesotrione 52.5 g ai/ha): 9; Classification and statistics of the grade of pesticide damage Grade 3 ([3]; mesotrione 52.5 g ai/ha): 3; Resistance evaluation ([3]; mesotrione 105 g ai/ha): Non-resistant; Scores ([3]; mesotrione 105 g ai/ha): 100; Classification and statistics of the grade of pesticide damage Grade 0 ([3]; mesotrione 105 g ai/ha): 0; Classification and statistics of the grade of pesticide damage Grade 1 ([3]; mesotrione 105 g ai/ha): 0; Classification and statistics of the grade of pesticide damage Grade 2 ([3]; mesotrione 105 g ai/ha): 0; Classification and statistics of the grade of pesticide damage Grade 3 ([3]; mesotrione 105 g ai/ha): 16

— patent publication US20250043302A1, “MUTATED HYDROXYPHENYLPYRUVATE DIOXYGENASE POLYPEPTIDE, AND CODING GENE AND USE THEREOF” (BEIJING DABEINONG BIOTECHNOLOGY CO., LTD., priority 2021, published 2025)
